The chains are these.
T1: EsCas13d, nuclease-dead (Eubacterium siraeum, UniProt B0MS50, R295A;H300A;R849A;H854A)
T1 sequence: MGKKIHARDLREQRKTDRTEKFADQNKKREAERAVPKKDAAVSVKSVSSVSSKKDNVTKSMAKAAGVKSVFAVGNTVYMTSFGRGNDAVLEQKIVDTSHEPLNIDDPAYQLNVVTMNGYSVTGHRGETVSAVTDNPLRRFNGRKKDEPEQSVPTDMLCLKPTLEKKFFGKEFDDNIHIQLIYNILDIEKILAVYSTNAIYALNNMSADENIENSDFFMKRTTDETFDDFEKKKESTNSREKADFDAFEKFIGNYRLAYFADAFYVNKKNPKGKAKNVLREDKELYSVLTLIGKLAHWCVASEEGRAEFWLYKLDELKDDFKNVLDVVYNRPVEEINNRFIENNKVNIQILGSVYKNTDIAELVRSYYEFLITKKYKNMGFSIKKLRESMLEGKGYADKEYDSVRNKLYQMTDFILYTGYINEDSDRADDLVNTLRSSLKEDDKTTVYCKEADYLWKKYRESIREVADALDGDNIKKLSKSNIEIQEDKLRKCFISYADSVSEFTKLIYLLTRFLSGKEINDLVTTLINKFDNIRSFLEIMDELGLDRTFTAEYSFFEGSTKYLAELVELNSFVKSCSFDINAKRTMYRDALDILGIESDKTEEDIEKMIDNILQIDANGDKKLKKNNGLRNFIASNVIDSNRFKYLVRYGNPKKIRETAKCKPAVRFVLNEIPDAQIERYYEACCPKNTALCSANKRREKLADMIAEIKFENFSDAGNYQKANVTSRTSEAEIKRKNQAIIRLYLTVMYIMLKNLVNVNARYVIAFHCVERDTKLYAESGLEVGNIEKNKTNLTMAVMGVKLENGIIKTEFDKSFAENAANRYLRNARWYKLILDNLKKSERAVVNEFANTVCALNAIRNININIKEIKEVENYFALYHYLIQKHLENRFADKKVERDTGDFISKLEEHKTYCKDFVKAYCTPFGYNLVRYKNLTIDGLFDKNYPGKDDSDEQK

B1: target 1 MT 5'PFS CAA 3'PFS UGA (mixed)
RNA 1: CACCCGUGCAAAAAUGCAGGGGUCUAAAACUGAGCGGAUAACCUCUCUAUGG
RNA 2: GGGAAUGGAUCCACAUCUACGAAUUCCAACCAUAGAGAGGUUAUCCGCUCAUGAAGAUCGGAAGAGCACACGU
B2: target 1 MT 5'PFS GGA 3'PFS AUA (mixed)
RNA 1: B1 RNA 1
RNA 2: B1 RNA 2 with C27G, A28G, U52A, G53U
B3: target 1 MT 5'PFS GUG 3'PFS CCC (mixed)
RNA 1: B1 RNA 1
RNA 2: B1 RNA 2 with C27G, A28U, A29G, U52C, G53C, A54C
B4: target 1 MT 5'PFS GUG 3'PFS CCG (mixed)
RNA 1: B1 RNA 1
RNA 2: B1 RNA 2 with C27G, A28U, A29G, U52C, G53C, A54G
B5: target 1 MT 5'PFS CAC 3'PFS UUU (mixed)
RNA 1: B1 RNA 1
RNA 2: B1 RNA 2 with A29C, G53U, A54U
B6: target 1 MT 5'PFS CAU 3'PFS UCA (mixed)
RNA 1: B1 RNA 1
RNA 2: B1 RNA 2 with A29U, G53C
B7: target 1 MT 5'PFS CCA 3'PFS UAA (mixed)
RNA 1: B1 RNA 1
RNA 2: B1 RNA 2 with A28C, G53A
B8: target 1 MT 5'PFS CCC 3'PFS AUU (mixed)
RNA 1: B1 RNA 1
RNA 2: B1 RNA 2 with A28C, A29C, U52A, G53U, A54U
B9: target 1 MT 5'PFS GUG 3'PFS CCU (mixed)
RNA 1: B1 RNA 1
RNA 2: B1 RNA 2 with C27G, A28U, A29G, U52C, G53C, A54U
B10: target 1 MT 5'PFS UGC 3'PFS AUA (mixed)
RNA 1: B1 RNA 1
RNA 2: B1 RNA 2 with C27U, A28G, A29C, U52A, G53U
B11: target 1 MT 5'PFS GCA 3'PFS CUC (mixed)
RNA 1: B1 RNA 1
RNA 2: B1 RNA 2 with C27G, A28C, U52C, G53U, A54C
B12: target 1 MT 5'PFS GGA 3'PFS AUG (mixed)
RNA 1: B1 RNA 1
RNA 2: B1 RNA 2 with C27G, A28G, U52A, G53U, A54G
B13: target 1 MT 5'PFS GGA 3'PFS AUC (mixed)
RNA 1: B1 RNA 1
RNA 2: B1 RNA 2 with C27G, A28G, U52A, G53U, A54C
B14: target 1 MT 5'PFS UGC 3'PFS AUU (mixed)
RNA 1: B1 RNA 1
RNA 2: B1 RNA 2 with C27U, A28G, A29C, U52A, G53U, A54U
B15: target 1 MT 5'PFS GGC 3'PFS AGC (mixed)
RNA 1: B1 RNA 1
RNA 2: B1 RNA 2 with C27G, A28G, A29C, U52A, A54C
B16: target 1 MT 5'PFS GCA 3'PFS CUG (mixed)
RNA 1: B1 RNA 1
RNA 2: B1 RNA 2 with C27G, A28C, U52C, G53U, A54G
B17: target 1 MT 5'PFS CCU 3'PFS CAA (mixed)
RNA 1: B1 RNA 1
RNA 2: B1 RNA 2 with A28C, A29U, U52C, G53A
B18: target 1 MT 5'PFS GGA 3'PFS AUU (mixed)
RNA 1: B1 RNA 1
RNA 2: B1 RNA 2 with C27G, A28G, U52A, G53U, A54U
B19: target 1 insA 3' of 11,insC 3' of 8 (mixed)
RNA 1: B1 RNA 1
RNA 2: GGGAAUGGAUCCACAUCUACGAAUUCGUACCAUAGAGAGGUAUAUCCCGCUCACCGAGAUCGGAAGAGCACACGU
B20: target 1 U8C,U19C (mixed)
RNA 1: B1 RNA 1
RNA 2: B1 RNA 2 with C27G, A28U, U33C, U44C, U52C, G53C, A54G
B21: target 1 MT 5'PFS UGC 3'PFS AUC (mixed)
RNA 1: B1 RNA 1
RNA 2: B1 RNA 2 with C27U, A28G, A29C, U52A, G53U, A54C
B22: target 1 MT 5'PFS UGC 3'PFS UAU (mixed)
RNA 1: B1 RNA 1
RNA 2: B1 RNA 2 with C27U, A28G, A29C, G53A, A54U
B23: target 1 MT 5'PFS CAU 3'PFS ACU (mixed)
RNA 1: B1 RNA 1
RNA 2: B1 RNA 2 with A29U, U52A, G53C, A54U
B24: target 1 MT 5'PFS GGA 3'PFS UGU (mixed)
RNA 1: B1 RNA 1
RNA 2: B1 RNA 2 with C27G, A28G, A54U
B25: target 1 MT 5'PFS UCG 3'PFS ACC (mixed)
RNA 1: B1 RNA 1
RNA 2: B1 RNA 2 with C27U, A28C, A29G, U52A, G53C, A54C
B26: target 1 insU 3' of 18,insA 3' of 12 (mixed)
RNA 1: B1 RNA 1
RNA 2: B19 RNA 2 with G35U, A36G, G37A, A38G, G39A, U41G, A44U, U45A, C46U
B27: target 1 MT 5'PFS UGC 3'PFS AUG (mixed)
RNA 1: B1 RNA 1
RNA 2: B1 RNA 2 with C27U, A28G, A29C, U52A, G53U, A54G
B28: target 1 MT 5'PFS GUG 3'PFS CCA (mixed)
RNA 1: B1 RNA 1
RNA 2: B1 RNA 2 with C27G, A28U, A29G, U52C, G53C
B29: target 1 MT 5'PFS CAU 3'PFS UCU (mixed)
RNA 1: B1 RNA 1
RNA 2: B1 RNA 2 with A29U, G53C, A54U
B30: target 1 MT 5'PFS CAA 3'PFS ACC (mixed)
RNA 1: B1 RNA 1
RNA 2: B1 RNA 2 with U52A, G53C, A54C
B31: target 1 MT 5'PFS CCC 3'PFS AUG (mixed)
RNA 1: B1 RNA 1
RNA 2: B1 RNA 2 with A28C, A29C, U52A, G53U, A54G
B32: target 1 MT 5'PFS UUG 3'PFS UUG (mixed)
RNA 1: B1 RNA 1
RNA 2: B1 RNA 2 with C27U, A28U, A29G, G53U, A54G

Substitutions are numbered along the chain they refer to. Numbers in names are those of the source.

This passage reports Kd results from publication PMC10786891, “Massively parallel profiling of RNA-targeting CRISPR-Cas13d”.

By Kd is commonly meant the free concentration of one partner at which half of the binding sites on the other are occupied at equilibrium, for simple one-to-one binding. Low readings indicate higher affinity, high ones lower affinity.

In this data set the target is T1, EsCas13d, nuclease-dead. Kind of data set: crRNA (strand 1, pre-loaded); Mg2+; 40 mM Tris-HCl pH 7.5, 150 mM NaCl, 6 mM MgCl2, 1 mM DTT, 0.1% Tween-20, 0.2 mg/ml BSA; 25 C; 10 min per concentration, then washed. The conditions noted are these: tags: His6-TwinStrep-SUMO cleaved; N-terminal SNAP kept (SNAP-Surface 488); label: 3' end held by stalled T7 RNA polymerase.
As to B1, the Kd was ~41 nM.

B2 gave a Kd of 29 ± 7 nM.

The molecule B3 showed a Kd of 23 ± 4 nM.

B4 showed a Kd of 11.7 ± 1.05 nM.

Molecule B5 gave a Kd of 7.15 ± 2.4 nM.

Turning to B6, the Kd is ~35 nM.

For the molecule B7, the Kd was 3.85 ± 1.9 nM.

With B8, the Kd is ~8 nM.

B9: the Kd came to 10.6 ± 1.1 nM.

For the molecule B10, the affinity, expressed as Kd, was 16.5 ± 6 nM.

In the case of B11, the Kd is ~19.5 nM.

Molecule B12 returned a Kd of 34.5 ± 6.5 nM.

For the molecule B13, the Kd is 22.5 ± 9 nM.

B14 displayed a dissociation constant Kd of 18.6 ± 5.1 nM.

On to B15, for which the Kd came out at 9.95 ± 1.75 nM. Against the preceding molecule, the Kd is about 1.9-fold lower.

As for B16, the Kd was 11.9 ± 3.35 nM.

As to B17, the Kd is 55 ± 19 nM.

As for B18, the Kd was found to be 17.6 ± 3.55 nM.

On to B19, for which the Kd stood at 16.7 ± 1.1 nM.

For B20, binding was characterised by a dissociation constant (Kd) of 41.1 ± 2.3 nM.

In the case of B21, the Kd came to 52.5 ± 23 nM.

On to B22, for which binding was characterised by a dissociation constant (Kd) of 13.8 ± 5 nM. This Kd lies about 3.8-fold lower than the previous one.

B23: the Kd was found to be 61.5 ± 26 nM.

For B24, the Kd was determined as 48 ± 13 nM.

The molecule B25 registered a Kd of 32.5 ± 14 nM.

B26 came in with a Kd of 63 ± 14 nM. This Kd is about 1.9-fold higher than that of the molecule before.

Turning to B27, the dissociation constant Kd is ~55.5 nM.

B28: the Kd was found to be 46 ± 7.5 nM.

For the molecule B29, the Kd was ~65 nM.

Take B30: binding was put at a Kd of 14.8 ± 5.05 nM.

Consider B31, for which the Kd stood at 31 ± 14 nM.

Regarding B32, the Kd was 18.2 ± 3.2 nM.
